# Assay results published in the RNAGym collection of RNA variant scans (doi:10.7554/elife.80360).
# B1: HDV Ribozyme (parent)
# chain: GGCCGGCAUGGUCCCAGCCUCCUCGCUGGCGCCGGCUGGGCAACAUUCCGAGGGGACCGUCCCCUCGGUAAUGGCGAAUGGGACCCA
# Variants of: B1
# Experiment: self-cleavage, relative activity (ratio to wild type); higher = more cleavage; co-transcriptional
row,Variant,self-cleavage
1,GGCCGGCAUGGUCCCAGCCUCCUCGAUGGCGCCGGCUGGGCAACAUUCCGAGGGGACCGUCCCCUCGGUAAUGACGAAUGGGACCCA [C26A G74A],0.573
2,GGCCGGCAUGGUUCCAGCCUCCUCGCUGGCGCCGGCUGGGCAACAUUCCGAGGGGACCGUCCCCUCGGUAAUGGCGAAUGGGACCCG [C13U A87G],0.634
3,GUCCGGCAUGGUCCCAGCCUCCUCGCUGGCGACGGCUGGGCAACAUUCCGAGGGGACCGUCCCCUCGGUAAUGGCGAAUGGGACCCA [G2U C32A],0.0302
4,GGCCGGCAUGGUCCCAGCCUCCUCGCUGGCGCCGGCAGGGCAACAUUCCGAGGGGACCGUCCCCUCGGUAAUGGCGCAUGGGACCCA [U37A A77C],0.0426
5,GGCCGGCAUGGUCACAGCCUCUUCGCUGGCGCCGGCUGGGCAACAUUCCGAGGGGACCGUCCCCUCGGUAAUGGCGAAUGGGACCCA [C14A C22U],0.181
6,GGCCGGCAUGGUCCCAGCCUCCUCGCUGGCGCCGGCUGGGCAACAUUCCGAGGGUACCGUCCCCUCGGUAAUGGCGAAUGGGACCUA [G55U C86U],0.923
7,GGACGGCAUGGUCCCAGCCUCCUCGCUGGCGCCGGCUGGGCAACAUGCCGAGGGGACCGUCCCCUCGGUAAUGGCGAAUGGGACCCA [C3A U47G],0.237
8,GGCCGGCAUGGUCCCAGCCUCCUCGCUGGAGCCGGCUGGGCAACAUUCCGAGGGGACCGUCCCCUCGGUAAUGGUGAAUGGGACCCA [C30A C75U],0.101
9,GGCCGGCAUGGUCCCAGCCUCCUCGCUGGCGCCGGUUGGGCAACAUUCCGAGGGGACCGUACCCUCGGUAAUGGCGAAUGGGACCCA [C36U C61A],0.831
10,GGCCGGCAUGGUCCCAGCCUGCUCGCUGGCGCCGGCUGGGCAACAUUCCUAGGGGACCGUCCCCUCGGUAAUGGCGAAUGGGACCCA [C21G G50U],0.0594
11,GGCCGGCAUGGUCCCAGCCUCCUCGCUGGCCCCGGCUGGGCAACAUUCCGAGGGGACCGUCCCCUCGGUAAUGGUGAAUGGGACCCA [G31C C75U],0.111
12,GGCCGGCAUGGUCCCAGCCUCCUCGCUGGCGCCGGCUGGGCAACAUUCCGAGGGGACCGUCCCCUAGGUCAUGGCGAAUGGGACCCA [C66A A70C],0.831
13,GGCCGGCAUGGUCUCAGCCUCCUCGCUGGCGCCGGCUGGGCAACAUUCCGAGGGGACCGUCCCCUCGGUAAUGGCGAAUGGGGCCCA [C14U A83G],0.54
14,GGUCGGCAUGGUCCCAGCCUCCUCGCUGGCGCCGGCUGGGCAACAUUCCGAGGGGACCGUCCCCUCGGUAAUGGCGAAUAGGACCCA [C3U G80A],0.175
15,GGCCGGCAUGGUCCCAGCCUCCUCGCUGGCUCCGGCUGGGCAACAUUCCGAGUGGACCGUCCCCUCGGUAAUGGCGAAUGGGACCCA [G31U G53U],0.322
16,GGCCGGCAUGGUACCAGCCUCCUCGCUGGCGCCGGCUGGGCAACAUUCCGAGGGGACCGUCACCUCGGUAAUGGCGAAUGGGACCCA [C13A C62A],0.158
17,GGCCGGCAUGGUCCCAGCCUCCUCGCUGGCGCCGGCUGGGCAACAUUCCGAGGGGAUCGUCCCCUCGGUAAUGGCGAAUGGGAACCA [C57U C84A],0.748
18,GGCCGGCAUGGUCCCAGCCUCCUCACUGGCGCCGGCUGGGCAACAUUCUGAGGGGACCGUCCCCUCGGUAAUGGCGAAUGGGACCCA [G25A C49U],0.318
19,GGCCGGCAUGGUCCCAGCCUCCUCCCUGGCGCCGGCUGGGCAACAUUCCGGGGGGACCGUCCCCUCGGUAAUGGCGAAUGGGACCCA [G25C A51G],0.237
20,CGCCGGCAUGGUCCCAGCCUCCUCGCUGGCGCCGGCUGGGCAACAUUCCGAGGGGACCGUCCCCUCGGUAAUGGCGAGUGGGACCCA [G1C A78G],0.0573
21,GGCCGGCAUGGUCCCAGCCUCCUCGUUGGCGUCGGCUGGGCAACAUUCCGAGGGGACCGUCCCCUCGGUAAUGGCGAAUGGGACCCA [C26U C32U],0.799
22,GGCCGGCAUGGUCCCAGCCUCCUCGCUGGCGCCGGCUGGUCAACAUUCCGAGGGGACCGUCCCCUCGGUAAUGGCGAAUGGGACUCA [G40U C85U],0.911

row,Variant,self-cleavage
1,GGCCGGCAUGGUCCCAGCCUCCUCGCUUGCGCCGGCUGGGCAACAUUCCGAGGGGACCGUCCCCUCGGUAAUGUCGAAUGGGACCCA [G28U G74U],0.0639
2,GGCCGGCAAGGUCCCAGCCUCCUCGCUGGCGCCGGCUGGGCAACAUUCCGAGGGGAACGUCCCCUCGGUAAUGGCGAAUGGGACCCA [U9A C57A],1.02
3,GACCGGCAUGGUCUCAGCCUCCUCGCUGGCGCCGGCUGGGCAACAUUCCGAGGGGACCGUCCCCUCGGUAAUGGCGAAUGGGACCCA [G2A C14U],0.169
4,GGCCGGCAUGGUCCCAGCGUCAUCGCUGGCGCCGGCUGGGCAACAUUCCGAGGGGACCGUCCCCUCGGUAAUGGCGAAUGGGACCCA [C19G C22A],0
5,GGCCGGCAGGGUCCCAGCCUCCUCGCUGGCGCCGGCUGGGCAACAUUCCGAGGGGACCGUCCCCCCGGUAAUGGCGAAUGGGACCCA [U9G U65C],1.17
6,GGCCGGGAUGGUCCCAGCCUCCUCGCUGGCGCCGGCUGUGCAACAUUCCGAGGGGACCGUCCCCUCGGUAAUGGCGAAUGGGACCCA [C7G G39U],0
7,GGCCGGCAUGGUCCCAGCCUCCUCGCUGUCGCCGGUUGGGCAACAUUCCGAGGGGACCGUCCCCUCGGUAAUGGCGAAUGGGACCCA [G29U C36U],0.187
8,GGCCGGCAUGGUCCCAGCCUCCUCGCUGGCGCCGGGUGGGCAACAUUCCGAGGGGACCGUCCCCUCGGUAAUGGCGAAUAGGACCCA [C36G G80A],0.0382
9,GGCCGGCAUGGUCCCAGCCUCCUCGCUGGCGCCGGCUGGGCAACAUUCCGAGGGGACCGUCCCCUGGGUAAUGUCGAAUGGGACCCA [C66G G74U],0.396
10,GGCCGGCAUGGUCCCAGCCUCCUCGCUGGCGCCGGCUGGGCAACAUUCCUAGGGGACCGUCGCCUCGGUAAUGGCGAAUGGGACCCA [G50U C62G],0.344
11,GGCCGGCAUGGACCCAGCCUCCUCGCUGGCGCCGGCUGGGCAACAUCCCGAGGGGACCGUCCCCUCGGUAAUGGCGAAUGGGACCCA [U12A U47C],0.332
12,GGCCGGCAUGGUACCAGCCUUCUCGCUGGCGCCGGCUGGGCAACAUUCCGAGGGGACCGUCCCCUCGGUAAUGGCGAAUGGGACCCA [C13A C21U],0.0583
13,GGCCGGCAUGGUCCCAGCCUCCUCCCUGGCGCCGGCUGGGCAACAUUCCGAGGGGACCGUCCCCUCGGUAAUUGCGAAUGGGACCCA [G25C G73U],0.185
14,GGCCGGCAAGGUCCCAGCCUCCUCGCUGGCGCCGGCUGGGCAACAUUCCGAGGGGACCGUCCCCUCGGUAAUGGCGAAUAGGACCCA [U9A G80A],0.402
15,GGCCGGCAUGGUCCCAGCCUCCUCGCUGGCGCCGGCUGGGCAACAUUCCGAGGGGCCCGUCCCCUCGGUAGUGGCGAAUGGGACCCA [A56C A71G],0.98
16,GGCCGGCAUGGUCCCAGCCUGCUCCCUGGCGCCGGCUGGGCAACAUUCCGAGGGGACCGUCCCCUCGGUAAUGGCGAAUGGGACCCA [C21G G25C],0.0489
17,GGCCGGCAUGGUCCCUGCCUCCUCGCUGGCGCCGGCUGGGCAACAUUCCGAGGGGACCGUCCCCUCGGUAAUGGCGAUUGGGACCCA [A16U A78U],0.332
18,GGCCGGCAUGGUCCCAGCCUCCUCGCUGGCGCCGGCUGGGCAACAUUCCUAGGGGACCGUCCCCUCGGUCAUGGCGAAUGGGACCCA [G50U A70C],0.795
19,GGCCGGCAUGGUCCCAGCCUCCUCGCUGGCGCCGGCUGGGCAACAUUCCGAGGGGACCGUCCCCUUGGUAAUGGGGAAUGGGACCCA [C66U C75G],0.141
20,GGCCGGCAUGGUCCCAGCCUCCUCGCUGGCGCCGCCUGGGCAACAUUCCGAGGGGACCGUCCCCUCGGUAACGGCGAAUGGGACCCA [G35C U72C],0.156
21,GGCCGGCAUGGUCCCAGCCUCCUCGCUGGCGCCGGCUGGGCAACAUUCCGAGCGGACCGUCCCCUCGGUUAUGGCGAAUGGGACCCA [G53C A70U],0.988
22,GGCCGGCAUGGUCCCAGCCUCCUCGCUGGCGCCGGCUGGGCAACAUUCAGAGGGGACCGUCCCCUGGGUAAUGGCGAAUGGGACCCA [C49A C66G],0.96

row,Variant,self-cleavage
1,GGCCGGCAUGGUCCAAGCCUCCUCGCUGGCGCCGGCUGGGCAACAUUCCGAGGGGACCGUCCCCUCGGUAAUGGCGAAUGGGACACA [C15A C85A],0.623
2,GGCCGGCAUGGUCCCAGCCUCAUCGCUGGCGCCGGCUGGGCAACAUUCCGAGGGGACCGUCCCCUCGGUGAUGGCGAAUGGGACCCA [C22A A70G],0.203
3,GGCCGGCAUGGUCCCAGCCUCCUCGCUGGCGCCGGAUGGGCAACAUUCCGAUGGGACCGUCCCCUCGGUAAUGGCGAAUGGGACCCA [C36A G52U],0.14
4,GGCCGGCAUGGUCCCAGCCUCCUAGCUGGCGCCGGCUGGGCAACAUUCCGAGGGGACCGUCCCCUGGGUAAUGGCGAAUGGGACCCA [C24A C66G],0.731
5,GGCCGGCAUGUUCCCAGCCUCCUCGCUGGCGCCGGCUGGGCAACAUUCCGAGGGGACCGUCCCCUCGUUAAUGGCGAAUGGGACCCA [G11U G68U],0.17
6,GGCCGGCAUGGUCCCAGCCUCCUCGCUGGCGCCGGCUGGGCAACAUUCCGAUGCGACCGUCCCCUCGGUAAUGGCGAAUGGGACCCA [G52U G54C],0.684
7,GGCCGGCAUGGUCCCAGCCUCCUCGCUAGCGCCGGCUGGGCAACAUUCCGAGGGGACUGUCCCCUCGGUAAUGGCGAAUGGGACCCA [G28A C58U],0.0228
8,GGCCGGCAUGGUCCCAGCUUCCUCGCUGGCGCCGGCUGGGCAACAUUCCGAGGGGACCGUCCCCUCGGUAAUGGCGAAUCGGACCCA [C19U G80C],0.112
9,GGCCGGCAUGGUCCCAGCCUCCUCCCUGGCGCCGGCUGGGCAACAUUCCGAUGGGACCGUCCCCUCGGUAAUGGCGAAUGGGACCCA [G25C G52U],0.141
10,GGCCGGCAUGGUCCCAGCCUCCUCGCUGGCGCCGGCUGGGCAACAUUCCGAGGCGACCGUCCUCUCGGUAAUGGCGAAUGGGACCCA [G54C C63U],0.774
11,GGCCGGCAUGGUCCCAGCCUCCUCGCUGGCUCCGGCUGGGCAACAUUCCGAGGGGACCGUCCCCUCGGUAAUGGCGAAUAGGACCCA [G31U G80A],0.0519
12,GCCCGGCAUGGUCCCAGCCUCCUCGCUGGCGCCGGCUGUGCAACAUUCCGAGGGGACCGUCCCCUCGGUAAUGGCGAAUGGGACCCA [G2C G39U],0.0246
13,GGCCGGCAUGGUCCCAGCCUCCUCGCUGGCGCCGGCUGGGCAACAUUCCGAAGGGACCGUCCCCUCGGUAAUGGCGAAUGGGUCCCA [G52A A83U],0.475
14,GGCCGGCAUGGUCCCAGCCUCCUCGCUGGCGCCGGCUGGGCAAGAUUCCGAGGGGACCGUCCCCUCUGUAAUGGCGAAUGGGACCCA [C44G G67U],0.68
15,GGCGGGCAUAGUCCCAGCCUCCUCGCUGGCGCCGGCUGGGCAACAUUCCGAGGGGACCGUCCCCUCGGUAAUGGCGAAUGGGACCCA [C4G G10A],0.105
16,GGCCGGCAUGGUCCCAGCCUCCUCGCUGGCGCAGGCUGGGCAACAUUCCGAGGGGUCCGUCCCCUCGGUAAUGGCGAAUGGGACCCA [C33A A56U],0.475
17,GGCCGGCAUGGUCCCAGCCUCCUCGCUGGCGCCGGCUGGGCAACUUUCCGAGGGGACCUUCCCCUCGGUAAUGGCGAAUGGGACCCA [A45U G59U],0.903
18,GGCCGGCAUGGUCCGAGACUCCUCGCUGGCGCCGGCUGGGCAACAUUCCGAGGGGACCGUCCCCUCGGUAAUGGCGAAUGGGACCCA [C15G C18A],0.0997
19,GGCCGGCAUCGUCCCAGCCUCCUCGCUGGCGCCGGCUGGGCAACAUUCCGACGGGACCGUCCCCUCGGUAAUGGCGAAUGGGACCCA [G10C G52C],0.78
20,GGCCGGCAUUGUCCCAGCCUCCUCGCGGGCGCCGGCUGGGCAACAUUCCGAGGGGACCGUCCCCUCGGUAAUGGCGAAUGGGACCCA [G10U U27G],0.465
